Data: patent US20250084155A1 (University of Texas, published 2025)
Changes are numbered by the printed parent chain.

Biological target: T1, HSP70 (human HSP70; the antigen of the binning, humanization and variant binding assays) (human, UniProt P0DMV8 1-641, limits assumed)
T1 construct: also called hu HSP70
Test: BLI, anti-human Fc capture, antigen 100 nM
Method: Binding assays were performed as follows. Antibody variants were immobilized using anti-human Fc onto the surface of a series of biosensors at […]. Antigen, at 100 nM, was passed over the surface to generate a binding response. Binding data for the antibody:antigen interactions were collected at 25° C. on the biosensors. In Table 14, X=610 represents captured antigen value (nM) at the beginning of the dissociation phase (measured at 610 seconds after the biosensor was initially contacted with antigen) and X=1495 represents captured antigen value (nM) at the end of the dissociation phase (measured at 1495 seconds after the biosensor was initially contacted with antigen). In Table 14, antibodies with an X=610 value greater than 0.2 and a % dissociation less than 10% are shown in bold.

T1 sequence (P0DMV8 whole entry, change not shown): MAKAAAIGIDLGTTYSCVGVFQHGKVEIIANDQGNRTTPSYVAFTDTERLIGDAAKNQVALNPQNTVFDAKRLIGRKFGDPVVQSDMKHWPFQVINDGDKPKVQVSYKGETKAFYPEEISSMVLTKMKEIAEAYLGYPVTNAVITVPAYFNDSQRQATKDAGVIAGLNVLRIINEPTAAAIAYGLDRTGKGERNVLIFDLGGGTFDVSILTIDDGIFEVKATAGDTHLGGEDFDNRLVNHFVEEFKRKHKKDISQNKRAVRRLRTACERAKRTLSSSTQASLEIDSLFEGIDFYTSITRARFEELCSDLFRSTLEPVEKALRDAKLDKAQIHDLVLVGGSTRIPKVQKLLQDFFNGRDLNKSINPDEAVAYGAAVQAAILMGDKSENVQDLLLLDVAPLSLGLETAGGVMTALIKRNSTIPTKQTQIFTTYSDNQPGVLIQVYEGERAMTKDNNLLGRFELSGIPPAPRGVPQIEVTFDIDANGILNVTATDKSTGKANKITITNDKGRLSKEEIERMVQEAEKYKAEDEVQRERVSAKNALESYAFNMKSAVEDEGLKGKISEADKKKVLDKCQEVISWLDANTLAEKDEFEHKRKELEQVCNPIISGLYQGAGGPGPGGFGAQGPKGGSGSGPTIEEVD

B1: h77A-1.2 (antibody, V domains shown)
VH: QIQLVQSGAEVKKPGASVKVSCKASGYTFTNYGMNWVRQAPGQGLEWMGWINTYTGEPRYADDFKGRFTFTTDTSTSTAYMELRSLRSDDTAVYFCARYDHAMDYWGQGTLVTVSS
VL: EIVLTQSPDSLAVSLGERATINCKSSQSLLNSGTRKNYLAWYQQKAGQSPKLLIYWTSTRESGVPDRFSGSGSGTDFTLTIDSLQAEDVAVYYCKQSYTLYTFGGGTKVEIK
notes: captured by anti-human Fc
Q: For B1, which “% Diss” value is on record?
A: Its value is -1.81%.

B2: h77A-1.15 (antibody, V domains shown)
VH: B1 VH with R59T, A102V
VL: B1 VL
notes: captured by anti-human Fc
Q: For B2, which “% Diss” value is on record?
A: The value was 33%.

B3: h77A-1.23 (antibody, V domains shown)
VH: B1 VH with R59T
VL: B1 VL with A40S, T99S
notes: captured by anti-human Fc
Q: B3 was tested. Which “% Diss” value did it give?
A: Its value is 24%.

B4: h77A-1.13 (antibody, V domains shown)
VH: B1 VH with R59T, A102P
VL: B1 VL
notes: captured by anti-human Fc
Q: For B4, which “% Diss” value is on record?
A: Its value is 13.4%.

B5: h77A-1.77 (antibody, V domains shown)
VH: B1 VH with A9P, T28I, R59T, A61G, A97G
VL: B1 VL with S83R
notes: captured by anti-human Fc
Q: With B5 as the binder, how does the “% Diss” value read?
A: The value was 32.5%.

B6: h77A-1.38 (antibody, V domains shown)
VH: B1 VH with A9T, R59T, S77R, A102L
VL: B1 VL
notes: captured by anti-human Fc
Q: With B6 as the binder, how does the “% Diss” value read?
A: Its value is 10.5%.

B7: h77A-1.41 (antibody, V domains shown)
VH: B1 VH with R59T, S77T, A102V
VL: B1 VL with A46P
notes: captured by anti-human Fc
Q: For B7, which “% Diss” value is on record?
A: The value was 34.2%.

B8: h77A-1.54 (antibody, V domains shown)
VH: B1 VH with N31K, R59K, A61G, A102R
VL: B1 VL
notes: captured by anti-human Fc
Q: B8 was tested. Which “% Diss” value did it give?
A: Its value is -41.2%.

B9: h77A-1.43 (antibody, V domains shown)
VH: B1 VH with Q3H, R59T, A79V
VL: B1 VL with L53I
notes: captured by anti-human Fc
Q: B9 was tested. Which “% Diss” value did it give?
A: The value was 21.1%.

B10: h77A-1.64 (antibody, V domains shown)
VH: B1 VH with P58S, R59T
VL: B1 VL with Q44K, T80S, V91I
notes: captured by anti-human Fc
Q: With B10 as the binder, how does the “% Diss” value read?
A: Its value is 21%.

B11: h77A-1.25 (antibody, V domains shown)
VH: B1 VH with R59T, A102F
VL: B1 VL with V91I
notes: captured by anti-human Fc
Q: How did the “% Diss” value turn out when B11 was run?
A: Its value is 23.2%.

B12: h77A-1.21 (antibody, V domains shown)
VH: B1 VH with A9D, R59T
VL: B1 VL with T80S
notes: captured by anti-human Fc
Q: B12 was tested. Which “% Diss” value did it give?
A: Its value is 10%.

B13: h77A-1.47 (antibody, V domains shown)
VH: B1 VH with A9T, R59T, A102L
VL: B1 VL with A86T
notes: captured by anti-human Fc
Q: Which “% Diss” value does the source give for B13 here?
A: The value was 13.6%.

B14: h77A-1.7 (antibody, V domains shown)
VH: B1 VH with R59T, A102F
VL: B1 VL
notes: captured by anti-human Fc
Q: With B14 as the binder, how does the “% Diss” value read?
A: Its value is 30.2%.

B15: h77A-1.55 (antibody, V domains shown)
VH: B1 VH with A9S, R59T, A61G, A102F
VL: B1 VL with A12S
notes: captured by anti-human Fc
Q: For B15, which “% Diss” value is on record?
A: The value was 26.7%.

B16: h77A-1.11 (antibody, V domains shown)
VH: B1 VH with R59T
VL: B1 VL with A46P
notes: captured by anti-human Fc
Q: How did the “% Diss” value turn out when B16 was run?
A: The value was 10.7%.

B17: h77A-1.48 (antibody, V domains shown)
VH: B1 VH with R59T, E82D, A102Y
VL: B1 VL with A46P
notes: captured by anti-human Fc
Q: B17 was tested. Which “% Diss” value did it give?
A: The value was 34.5%.

B18: h77A-1.29 (antibody, V domains shown)
VH: B1 VH with R59T, A102F
VL: B1 VL with L30F
notes: captured by anti-human Fc
Q: How did the “% Diss” value turn out when B18 was run?
A: Its value is 28.3%.

B19: h77A-1.35 (antibody, V domains shown)
VH: B1 VH with A9T, R59T, A102H
VL: B1 VL with A12T
notes: captured by anti-human Fc
Q: Which “% Diss” value does the source give for B19 here?
A: The value was 4.38%.

B20: h77A-1.52 (antibody, V domains shown)
VH: B1 VH with A9V, T28I, A102R
VL: B1 VL
notes: captured by anti-human Fc
Q: For B20, which “% Diss” value is on record?
A: The value was -115%.

B21: h77A-1.31 (antibody, V domains shown)
VH: B1 VH with R59T, A102P
VL: B1 VL with S83R
notes: captured by anti-human Fc
Q: B21 was tested. Which “% Diss” value did it give?
A: Its value is -3.52%.

B22: h77A-1.42 (antibody, V domains shown)
VH: B1 VH with Q3H, R59T, A97T, A102R
VL: B1 VL
notes: captured by anti-human Fc
Q: How did the “% Diss” value turn out when B22 was run?
A: Its value is 33.5%.

B23: h77A-1.70 (antibody, V domains shown)
VH: B1 VH with R59T, A61S
VL: B1 VL with A12S, Q44K, S83R, V91L
notes: captured by anti-human Fc
Q: B23 was tested. Which “% Diss” value did it give?
A: The value was 11.6%.

B24: h77A-1.26 (antibody, V domains shown)
VH: B1 VH with R59T, S77R, A97T
VL: B1 VL
notes: captured by anti-human Fc
Q: B24 was tested. Which “% Diss” value did it give?
A: The value was 11.8%.

B25: h77A-1.45 (antibody, V domains shown)
VH: B1 VH with A9V, R59T, A79V
VL: B1 VL with T99S
notes: captured by anti-human Fc
Q: How did the “% Diss” value turn out when B25 was run?
A: The value was 33.9%.

B26: h77A-1.24 (antibody, V domains shown)
VH: B1 VH with R59T, A102R
VL: B1 VL with A40T
notes: captured by anti-human Fc
Q: B26 was tested. Which “% Diss” value did it give?
A: Its value is 33.6%.

B27: h77A-1.53 (antibody, V domains shown)
VH: B1 VH with R59K, A61T, S77R
VL: B1 VL with A12S
notes: captured by anti-human Fc
Q: For B27, which “% Diss” value is on record?
A: Its value is 11.1%.

B28: h77A-1.63 (antibody, V domains shown)
VH: B1 VH with R59T, T110S
VL: B1 VL with A40T, A46S, V91I
notes: captured by anti-human Fc
Q: B28 was tested. Which “% Diss” value did it give?
A: The value was 14.2%.

B29: h77A-1.28 (antibody, V domains shown)
VH: B1 VH with A9T, R59T, A102T
VL: B1 VL
notes: captured by anti-human Fc
Q: With B29 as the binder, how does the “% Diss” value read?
A: Its value is 18.8%.

B30: h77A-1.36 (antibody, V domains shown)
VH: B1 VH with R59T, S77T, A102H
VL: B1 VL with L30F
notes: captured by anti-human Fc
Q: With B30 as the binder, how does the “% Diss” value read?
A: Its value is 6.96%.

B31: h77A-1.50 (antibody, V domains shown)
VH: B1 VH with Q3H, A9V, R59T, A61T
VL: B1 VL with V91I
notes: captured by anti-human Fc
Q: Which “% Diss” value does the source give for B31 here?
A: The value was 11.2%.

B32: h77A-1.39 (antibody, V domains shown)
VH: B1 VH with R59T, A61S, S77R
VL: B1 VL with T99N
notes: captured by anti-human Fc
Q: Which “% Diss” value does the source give for B32 here?
A: The value was 21%.

B33: h77A-1.20 (antibody, V domains shown)
VH: B1 VH with A9D, R59T, A61S
VL: B1 VL
notes: captured by anti-human Fc
Q: Which “% Diss” value does the source give for B33 here?
A: The value was 12.1%.

B34: h77A-1.3 (antibody, V domains shown)
VH: B1 VH with R59T, A102R
VL: B1 VL
notes: captured by anti-human Fc
Q: Which “% Diss” value does the source give for B34 here?
A: Its value is 28.7%.

B35: h77A-1.9 (antibody, V domains shown)
VH: B1 VH with R59T, A102T
VL: B1 VL
notes: captured by anti-human Fc
Q: How did the “% Diss” value turn out when B35 was run?
A: Its value is 18.3%.

B36: h77A-1.72 (antibody, V domains shown)
VH: B1 VH with A9P, T28I, P58T, R59T, S77T, A79V
VL: B1 VL
notes: captured by anti-human Fc
Q: Which “% Diss” value does the source give for B36 here?
A: The value was 31.5%.

B37: h77A-1.62 (antibody, V domains shown)
VH: B1 VH with R59T, S77T, A79G
VL: B1 VL with N22K, G70A
notes: captured by anti-human Fc
Q: With B37 as the binder, how does the “% Diss” value read?
A: The value was 12.3%.

B38: h77A-1.4 (antibody, V domains shown)
VH: B1 VH with R59I
VL: B1 VL
notes: captured by anti-human Fc
Q: How did the “% Diss” value turn out when B38 was run?
A: Its value is 31.8%.

B39: h77A-1.65 (antibody, V domains shown)
VH: B1 VH with P58A, R59T, T110S
VL: B1 VL with A46S, V91I
notes: captured by anti-human Fc
Q: B39 was tested. Which “% Diss” value did it give?
A: The value was 20.5%.

B40: h77A-1.57 (antibody, V domains shown)
VH: B1 VH with P58A, R59T, A102V
VL: B1 VL with L30V, A86T
notes: captured by anti-human Fc
Q: B40 was tested. Which “% Diss” value did it give?
A: Its value is 25.9%.

B41: h77A-1.66 (antibody, V domains shown)
VH: B1 VH with T28I, P58S, R59T, A79V
VL: B1 VL with N22K
notes: captured by anti-human Fc
Q: How did the “% Diss” value turn out when B41 was run?
A: The value was 32.1%.

B42: h77A-1.40 (antibody, V domains shown)
VH: B1 VH with R59T, A102Y
VL: B1 VL with A12T, T99N
notes: captured by anti-human Fc
Q: For B42, which “% Diss” value is on record?
A: Its value is 11.9%.

B43: h77A-1.37 (antibody, V domains shown)
VH: B1 VH with N31K, P58S, R59T, A102V
VL: B1 VL
notes: captured by anti-human Fc
Q: Which “% Diss” value does the source give for B43 here?
A: The value was 22.8%.

B44: h77A-1.76 (antibody, V domains shown)
VH: B1 VH with A9V, P58T, R59T, L83V
VL: B1 VL with L30F, T80S
notes: captured by anti-human Fc
Q: For B44, which “% Diss” value is on record?
A: Its value is 12.1%.

B45: h77A-1.33 (antibody, V domains shown)
VH: B1 VH with N31K, R59T, A102N
VL: B1 VL
notes: captured by anti-human Fc
Q: With B45 as the binder, how does the “% Diss” value read?
A: The value was 20.6%.

B46: h77A-1.5 (antibody, V domains shown)
VH: B1 VH with R59T
VL: B1 VL with T99N
notes: captured by anti-human Fc
Q: Which “% Diss” value does the source give for B46 here?
A: Its value is 25.3%.
